Measurements as given in doi:10.1101/760389 (bioRxiv, 2019).

T1: MBP-tagged CKL6 (casein kinase1-like 6) (Arabidopsis thaliana, UniProt Q8LPJ1 1-479)
T1 sequence (looked up): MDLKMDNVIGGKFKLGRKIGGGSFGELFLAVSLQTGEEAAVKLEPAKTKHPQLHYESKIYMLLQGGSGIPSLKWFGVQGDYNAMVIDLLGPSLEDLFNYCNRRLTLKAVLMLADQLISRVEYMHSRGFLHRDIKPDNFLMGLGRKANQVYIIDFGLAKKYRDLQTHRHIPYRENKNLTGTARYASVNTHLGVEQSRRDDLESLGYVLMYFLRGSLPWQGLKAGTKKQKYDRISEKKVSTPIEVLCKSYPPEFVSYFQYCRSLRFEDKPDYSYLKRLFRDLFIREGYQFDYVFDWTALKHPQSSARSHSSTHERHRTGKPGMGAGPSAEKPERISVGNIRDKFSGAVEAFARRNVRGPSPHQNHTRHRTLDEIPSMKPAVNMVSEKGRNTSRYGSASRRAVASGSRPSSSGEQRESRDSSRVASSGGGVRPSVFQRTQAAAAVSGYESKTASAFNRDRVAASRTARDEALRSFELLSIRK

B1: FRA1 C-terminal tail fragment (amino acids 616-1035), C-terminal 6xHis fusion (domain or fragment, Arabidopsis thaliana, UniProt Q8GS71 616-1035, looked up)
chain: ARRLQDEIQSIKAQKVQLQHRMKQEAEQFRQWKASREKELLQLRKEGRKSEYERHKLQALNQRQKMVLQRKTEEAAMATKRLKELLEARKSSPREHSAGTNGFGTNGQTNEKSLQRWLDHELEVMVNVHEVRHEYEKQSHVRAALAEELAVLRQVDEFAVKGLSPPRGKNGFARASSLSPNARMARISSLENMLVISSNSLVAMASQLSEAEERERAFTNRGRWNQLRSMGEAKNLLQYMFNSLAETRCQLWEKDVEIKEMKDQFKEIVGLLRQSELRRKEAEKELKLREQAIATSLGTPPSSVKHVAEDLSTPSPMTVPAQKQLKFTPGIANGKVRGPAAFLDTNKKMVPMGQVSMRKLSAVGKQGGRLWRWKRSHHQWIVQFKWKWQKPWRLSEWIRTSDETLLKSKPRLKALPNKIM

Experiments:
[1] = molecular target: T1, MBP-tagged CKL6 (casein kinase1-like 6); experiment: pull-down
[2] = molecular target: B1; experiment: pull-down

binding result [1]	binding result [2]	Binder
binds		B1
	binds	MBP-tagged CKL3 (casein kinase1-like 3) (enzyme, Arabidopsis thaliana, UniProt Q93Z18 1-415, looked up) MERIIGGKYKLGRKIGGGSFGEIFLATHVDTFEIVAVKIENSKTKHPQLLYEAKLYRILEGGSGIPRIKWFGVDGTENALVMDLLGPSLEDLFVYCGRKFSPKTVLMLADQMLTRIEFVHSKGYLHRDIKPDNFLMGLGRKANQVYLIDFGLAKRYRDANTNRHIPYRENKNLTGTARYASCNTHLGIEQSRRDDLESLGYVLLYFLRGSLPWQGLKAVDKKQKYDKICEKKISTPIEVLCKNHPVEFASYFHYCHTLTFDQRPDYGFLKRLFRDLFSREGYEFDYIFDWTIIKYQQAQKSRNQSQAVPGSSNPRAMPVDTSNHRGGPNISYEAEASERVRSANAIGPSPQINNNTAAGRTPGFDHPVHKNMNMPSTSLSPAGTSKRNVGPETSNSGYGSGNRTGWTSSFMSPEK
